Data as given in US20050282752A1.

How the values were obtained:
[1] = target: biotinylated human IL-1RI (human) (UniProt P14778); test: IGEN (ECL) competition, inhibition of IL-1 signaling complex formation; settings: ligand
[2] = target: biotinylated human IL-1RI (human) (UniProt P14778); test: IGEN (ECL) competition, inhibition of IL-1 signaling complex formation; concentrated stock; settings: ligand

Sequence of biotinylated human IL-1RI (human) (P14778 18-336): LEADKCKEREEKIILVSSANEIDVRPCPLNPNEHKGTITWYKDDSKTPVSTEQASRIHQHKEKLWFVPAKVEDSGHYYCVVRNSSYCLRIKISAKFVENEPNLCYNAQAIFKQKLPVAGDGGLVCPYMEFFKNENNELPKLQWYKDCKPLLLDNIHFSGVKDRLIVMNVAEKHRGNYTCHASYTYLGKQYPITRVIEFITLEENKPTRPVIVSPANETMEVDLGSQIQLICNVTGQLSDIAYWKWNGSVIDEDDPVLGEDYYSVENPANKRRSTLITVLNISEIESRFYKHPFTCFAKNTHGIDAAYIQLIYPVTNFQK

EC50 [1]: 0.562 nM
EC50 [2]: 0.873 nM
Substance: IL-1ra K93A mutant protein (from UniProt P18510 26-177)
